Numbering of substitutions follows the chain as printed. Numbers in names are those of the source.
B1: Vi-H46A: Vi mutant H46A (protein)
chain: LPICPGGAARCQVTLRDLFDRAVVLSHYIHNLSSEMFSEFDKRYTAGRGFITKAINSCHTSSLATPEDKEQAQQMNQKDFLSLIVSILRSWNEPLYHLVTEVRGMQEAPEAILSKAVEIEEQTKRLLEGMELIVSQVHPETKENEIYPVWSGLPSLQMADEESRLSAYYNLLHCLRRDSHKIDNYLKLLKCRIIHNNNC
B2: Vi-R48A: Vi mutant R48A (protein)
chain: B1 chain with A46H, R48A
B3: Vi-H46A/R48A: Vi double mutant H46A/R48A (protein)
chain: B1 chain with R48A

Target: T1, integrin α5β1 (Homo sapiens, UniProt P05556+P08648)
T1 construct: purchased Bio-Techne
T1 sequence (P08648 42-995 limits assumed): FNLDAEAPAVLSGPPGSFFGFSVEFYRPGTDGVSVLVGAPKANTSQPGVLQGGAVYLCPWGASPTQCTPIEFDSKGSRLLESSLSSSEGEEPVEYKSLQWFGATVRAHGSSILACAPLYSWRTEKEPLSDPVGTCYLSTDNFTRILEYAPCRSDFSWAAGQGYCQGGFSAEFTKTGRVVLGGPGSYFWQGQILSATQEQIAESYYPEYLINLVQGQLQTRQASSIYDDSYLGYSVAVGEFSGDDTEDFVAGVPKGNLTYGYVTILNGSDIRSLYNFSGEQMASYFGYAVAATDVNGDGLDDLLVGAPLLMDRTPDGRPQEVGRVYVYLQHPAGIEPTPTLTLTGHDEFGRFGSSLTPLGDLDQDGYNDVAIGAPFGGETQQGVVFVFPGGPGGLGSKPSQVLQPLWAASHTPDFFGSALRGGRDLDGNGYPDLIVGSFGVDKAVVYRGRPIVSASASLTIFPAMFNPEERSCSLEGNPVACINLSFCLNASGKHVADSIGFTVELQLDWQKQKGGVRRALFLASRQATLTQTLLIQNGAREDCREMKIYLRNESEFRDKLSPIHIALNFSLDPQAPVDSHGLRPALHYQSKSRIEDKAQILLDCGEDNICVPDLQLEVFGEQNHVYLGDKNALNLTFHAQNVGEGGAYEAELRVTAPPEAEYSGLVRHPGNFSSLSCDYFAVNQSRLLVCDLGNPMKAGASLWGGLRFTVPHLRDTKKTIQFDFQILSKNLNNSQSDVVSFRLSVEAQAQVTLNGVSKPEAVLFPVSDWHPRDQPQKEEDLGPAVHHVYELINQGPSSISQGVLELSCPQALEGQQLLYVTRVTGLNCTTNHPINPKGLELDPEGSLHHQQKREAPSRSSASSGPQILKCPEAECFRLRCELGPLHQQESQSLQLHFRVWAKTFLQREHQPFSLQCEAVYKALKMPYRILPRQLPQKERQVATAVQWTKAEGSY
T1 sequence (P05556 21-728 limits assumed): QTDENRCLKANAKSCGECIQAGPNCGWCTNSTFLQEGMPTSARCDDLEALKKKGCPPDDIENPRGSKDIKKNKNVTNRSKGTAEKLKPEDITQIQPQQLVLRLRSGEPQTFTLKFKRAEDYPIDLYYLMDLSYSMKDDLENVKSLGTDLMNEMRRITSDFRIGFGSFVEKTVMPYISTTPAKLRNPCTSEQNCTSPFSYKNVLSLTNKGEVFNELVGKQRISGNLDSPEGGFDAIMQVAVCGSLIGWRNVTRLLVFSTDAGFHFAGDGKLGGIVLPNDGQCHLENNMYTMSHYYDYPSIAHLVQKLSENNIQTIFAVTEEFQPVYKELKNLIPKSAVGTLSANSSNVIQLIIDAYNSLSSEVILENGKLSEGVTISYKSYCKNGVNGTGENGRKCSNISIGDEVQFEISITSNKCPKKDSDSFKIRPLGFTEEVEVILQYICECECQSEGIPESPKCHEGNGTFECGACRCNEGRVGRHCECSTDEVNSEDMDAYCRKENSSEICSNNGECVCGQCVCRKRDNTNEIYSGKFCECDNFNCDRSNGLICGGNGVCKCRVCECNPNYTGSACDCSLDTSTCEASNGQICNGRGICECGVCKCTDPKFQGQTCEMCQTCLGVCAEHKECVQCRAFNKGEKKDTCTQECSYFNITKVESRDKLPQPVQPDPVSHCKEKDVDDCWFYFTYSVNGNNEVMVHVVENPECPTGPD
Assay: ELISA, binding to immobilized integrin α5β1
Conditions: 100 nM mutant, compared with Vi
Protocol: Vi ([49]) and its mutants were produced as reported ([14]). HUVECs were cultured as reported ([14], [50]).
Plates coated with 2 μg mL^−1 integrin α5β1, PAI-1, or PAI-1-uPA complex (37 °C, 10 min) were incubated with B-Vi45-51, Vi, or 100 nM ViH46A, ViR48A, or ViH46A/R48A. Competition used excess Src, alanine mutants, or THGR peptides. Detection used horseradish peroxidase antibodies and 3,3′,5,5′-tetramethylbenzidine.

Integrin α5β1 binding of Vi mutants, reduced integrin binding:
B1
B2
B3

Source: publication PMC12795676, “Integrin α5β1 mediates the inhibitory effects of vasoinhibin on angiogenesis and vascular permeability [drawing 1]” (The Journal of Biological Chemistry, 2025)
